Test results from the DeepSol protein solubility set.

test: soluble on expression in E. coli; label from the status in PepcDB or PDB records

Sequence | soluble on expression in E. coli
MHHHHHHSSGVDLGTENLYFQSMGAASLDVIQEVEYVKEEAKMVYLLECLQKTPPPVLIFAEKKADVDAIHEYLLLKGVEAVAIHGGKDQEERTKAIEAFREGKKDVLVATDVASKGLDFPAIQHVINYDMPEEIENYVHRIGRTGCSGNTGIATTFINKACDESVLMDLKALLLEAKQKVPPVLQVLHCG | soluble
MKVAFVIRKDCKRCATIAKSIIELIPPDWEKIYDTEAAKFLGGVGKDITEISADIIIAIGGDGTVLRILQNAKGPVLGINMGGLGFLTEIEIDEVGSSTYKLIRGEYKINEAMKLKVYINGRRLEDCTNEAVVHTDRIARIRQFKIYVDGHFLTTIKSDGVIVATPTGSSSYSSSAGGPLLLPTVRGMVISYLAPYSSRIKPVVVPSESTVEIKIAGNDQDSLLILDGQKEYKIKSGDTVSISMSEEKARFVSFRESIYDRLRDKVIKHVVN | soluble
MRILHTSDWHLGQNFYSKSREAEHQAFLDWLLETAQTHQVDAIIVAGDVFDTGSPPSYARTLYNRFVVNLQQTGCHLVVLAGNHDSVATLNESRDIMAFLNTTVVASAGHAPQILPRRDGTPGAVLCPIPFLRPRDIITSQAGLNGIEKQQHLLAAITDYYQQHYADACKLRGDQPLPIIATGHLTTVGASKSDAVRDIYIGTLDAFPAQNFPPADYIALGHIHRAQIIGGMEHVRYCGSPIPLSFDECGKSKYVHLVTFSNGKLESVENLNVPVTQPMAVLKGDLASITAQLEQWRDVSQEPPVWLDIEITTDEYLHDIQRKIQALTESLPVEVLLVRRSREQRERVLASQQRETLSELSVEEVFNRRLALEELDESQQQRLQHLFTTTLHTLAGEHEA | soluble
MSLESLFQHIIFTEHQAEESRRLMREVRSEITRCREKIKKATEELNEEKIKLESKVQQFFEKSFFLQLLKAHENALEKQYSEITNHRNMLLQTFEAIKKQMIEEEDKFIKEITDFNNDYEITKKRELLMKENVKIEISDLENQANMLKSEMKSMEHDSSQLNELQKQKSELIQELFTLQRKLKVFEDEENESICTTKYLEAEKIKISEKPQNDTECLRLKKELELYKEDDMESVYEALQTEIEFLELTLAQKDLQESK | not soluble
MSLKYAWIELHSRQWPVSLTCQVLGVSPSGYHARKARDVDTDRARRRISNDALLVHIKAVHAESKGEYGWPRVWKKLLAQGIRVSKDRVQQLMKLHGIRAKTKRRFKVTTDSNHSLPVAPDLLQRDFSPARPDQVWTMDITYIWTDEGWLFLTVILDLFSRQVVGWSMQPHMRTELVSDALRMAWFRRRPEAGLIVHSDRGSQYCSRDFQDLLKGYGMRSSMSRRGNCWDNAPTESLWGSLKRARILGQRFATRREAMDEVIDWLSFYNHSRLHSTLGYVSPMQFERDWYAAQNQRVAEGHHHHHH | not soluble
SNAMNDIVASTQLPNTIKTITNDLRKLGLKKGMTVIVHSSLSSIGWISGGAVAVVEALMEVITEEGTIIMPTQSSDLSDPKHWSRPPVPEEWWQIIRDNVPAFEPHITPTRAMGKVVECFRTYPNVVRSNHPLGSFAAWGRHAEEITVNQSLSMSLGEESPLRKIYDLDGYILLIGVGYDSNTSVALSEVRSGACELIKVGAPIIENGERVWKEFVDMDYDSDKFVEIGVEFEQKGTVTMGKIGNAKCRLMKQRDIVDFGTEWFRKKN | soluble
MIIDCHGHYTTAPAAHDAFRKAQIAHHDDPQQPAPQYPHISDDALRESIEQHQLRLLRERGADMTIFSPRASTMAHHIGNEAVSQVWTQRCNDLIARVVQLYPHTFIGVCQLPQSPGVPISHSIAELERCVNELGFVGCNLNPDPSGGHWNGVPLTDRAWYPFFEKMVELDVPAMVHVSGSCNANFHATGAHYLNADTTAFMQFLEGDLFRDFPSLRFIIPHGGGAVPYHWGRFRGLADMLGKPPLATHVMRNVFFDTCVYHQPGIDLLFEVIDIDNILFGSEMVGAVRGIDPQTGHYFDDTKRYIDALTISDADKRKVFEGNARRVYPRLDAQLRARGLLEHHHHHH | not soluble
GSNSLMERIHEQIKKGELALFYLQEQINHFEEKPTKEMKDKIVAEMDTIIAMIDGVRGVLDRLMQRKDLDIFEQYNLEMAKKSGDILERDLKKEEARVKKIEV | soluble
MNLAKRILQGEQLTKETVLKIYEDTNIDTLDLLNEAYILRKHYFGKKVKLNMILNAKSGICPENCGYCGQSRDIKQKQRYALIPEEQIIDGAKVAHDNHIGTYCIVMSGRGPSDKEVDHISNTVRTIKSQHPQLKICACLGLTNDEQAKKLKSAGVDRYNHNINTSENYHDNVVTTHSYKDRTDTIELMKANNISPCSGVICGMGESNQDIVDMAFALKEMDADSIPINFLHPIKGTKFGSMDDLTPMKCLRIVALFRLINPTKEIRIAGGREVNLRSLQPLALKAANSIFVGDYLITGGQPNQLDYDMINDLGFEIDYDTCENKENKNDVSRAN | not soluble
MGSDKIHHHHHHMDDEIKKAITNYDDRPAMTKSTQKVFKNQQEMRTVLRDEVEVWQLIHQTDKQAEANIKPKLPPLAGARIMFRHFDFCLFSHDESERMAAYLPNDGIYTQNYRYLKRLIALMYPSYNLRQALDVIYHLEMMAPVRALTIDRYLVPVNNGIWNLHQHQLIPFSPKYVFTTKIATNYRDNATTPNIKGWTIDNWFDELACGDDEIVELLWEVINDCLNGNYTRKKAIFLFSELGNSGKGTFQELITNLVGMDNVGTLKVNEFDVRFRLAGLVGKTVCIGDDIAPDIYIKDSSNFNSVVTGDLVNIEFKGQDGYTSALRCTIVQSCNGLPNFHNKGGTMRRLVIVPFNNHFQGKGDNWSIRNDYITRKDVLEYVLYKALQLDFDKFSVPEVSKKALADFELDNNPLIGFKVSFFDKLKVDKVPTYYLYEYYKKYCSINGLKALGQSKFIRRFMTCVPLYEKKQAKLSATDINTLDVFKQQDEIIAWPREPLAGKKYNCIVQSTL | not soluble
MGSDKIHHHHHHMTSTVFAQSDDFTTWTKFKVNYKIDPRFSLLSNLEFRTKDDVSRMDRLGLAIGGEYRAYSFLKLEAGYETHFRNLGDSEWKFRHRYNFGATASFQYQWLKIALRERFQQTFDRGDSKARLRSRLKLAYAPEKGIVSPYFSIEIYQSLDDAPFWRADRMRYRPGVEIALAKRWALDIFYCYQYESPKGKHIAGVEIGYSF | not soluble
MAGIAMKLAKDREAAEGLGSHERAIKYLNQDYETLRNECLEAGALFQDPSFPALPSSLGFKELGPYSSKTRGIEWKRPTEICADPQFIIGGATRTDICQGALGDSWLLAAIASLTLNEEILARVVPLDQSFQENYAGIFHFQFWQYGEWVEVVVDDRLPTKDGELLFVHSAEGSEFWSALLEKAYAKINGCYEALSGGATTEGFEDFTGGIAEWYELRKPPPNLFKIIQKALEKGSLLGCSIDITSAADSEAVTYQKLVKGHAYSVTGAEEVESSGSLQKLIRIRNPWGQVEWTGKWNDNCPSWNTVDPEVRANLTERQEDGEFWMSFSDFLRHYSRLEICNLTPDTLTCDSYKKWKLTKMDGNWRRGSTAGGCRNYPNTFWMNPQYLIKLEEEDEDDEDGERGCTFLVGLIQKHRRRQRKMGEDMHTIGFGIYEVPEELTGQTNIHLSKNFFLTTRARERSDTFINLREVLNRFKLPPGEYVLVPSTFEPHKNGDFCIRVFSEKKADYQTVDDEIEANIEEIEANEEDIGDGFRRLFAQLAGEDAEISAFELQTILRRVLAKREDIKSDGFSIETCKIMVDMLDEDGSGKLGLKEFYILWTKIQKYQKIYREIDVDRSGTMNSYEMRKALEEAGFKLPCQLHQVIVARFADDELIIDFDNFVRCLVRLEILFKIFKQLDPENTGTIQLDLISWLSFSVLGKLAAALEHHHHHH | soluble
SLGPPPGPPRVSPDPRAELDSTVLLTRSLLADTRQLAAQLRDKFPADGDHNLDSLPTLAMSAGALGALQLPGVLTRLRADLLSYLRHVQWLRRAGGSSLKTLEPELGTLQARLDRLLRRLQLLMSRLALPQPPPDPPAPPLAPPSSAWGGIRAAHAILGGLHLTLDWAVRGLLLLKTR | soluble
ITLKYNYTVTLKDDGLYDGVFYDHYNDQLVTKISYNHETRHGNVNFRADWFNISRSPHTPGNDYNFNFWYSLMKETLEEINKNDSTKTTSLSLITGCYETGLLFGSYGYVETANGPLARYHTGDKRFTKMTHKGFPKVGMLTVKNTLWKDVKAYLGGFEYMGCSLAILDYQKMAKGKIPKDTTPTVKVTGNELEDGNMTLECTVNSFYPPDVITKWIESEHFKGEYKYVNGRYYPEWGRKSNYEPGEPGFPWNIKKDKDANTYSLTDLVRTTSKMSSQPVCVVFHDTLEAQVYTCSEGCNGELYDHLYRKTEEGEGGSHHHHHH | soluble
MDQVVVFQKMFEQVRKEQNFSWFYSELKHHRIAHYIYYLATDNIRIITHDDTVLLLRGTRNLLKVSTTKNPAKIKEAALLHICGKSTFREYCSTLAGAGVFRWVTDVNHNKRSYYAIDNTLLYIEDVENNKPLI | not soluble
MTKETYPKATVLDISASVEYSDGGIISKQVLKNEVGNITLFSFDQGQGLSEHTAPFDAFVQILEGEAEIRIGGQPLLLKAGRSVIMPANVSHALHATKRFKMLLTMIRG | not soluble
MAAQRRSLLQSEQQPSWTDDLPLCHLSGVGSASNRSYSADGKGTESHPPEDSWLKFRSENNCFLYGVFNGYDGNRVTNFVAQRLSAELLLGQLNAEHAEADVRRVLLQAFDVVERSFLESIDDALAEKASLQSQLPEGVPQHQLPPQYQKILERLKTLEREISGGAMAVVAVLLNNKLYVANVGTNRALLCKSTVDGLQVTQLNVDHTTENEDELFRLSQLGLDAGKIKQVGIICGQESTRRIGDYKVKYGYTDIDLLSAAKSKPIIAEPEIHGAQPLDGVTGFLVLMSEGLYKALEAAHGPGQANQEIAAMIDTEFAKQTSLDAVAQAVVDRVKRIHSDTFASGGERARFCPRHEDMTLLVRNFGYPLGEMSQPTPSPAPAAGGRVYPVSVPYSSAQSTSKTSVTLSLVMPSQGQMVNGAHSASTLDEATPTLTNQSPTLTLQSTNTHTQSSSSSSDGGLFRSRPAHSLPPGEDGRVEPYVDFAEFYRLWSVDHGEQSVVTAP | not soluble
MQRTLGEIMKIYFATGNPNKIKEANIILKDLKDVEIEQIKISYPEIQGTLEEVAEFGAKWVYNILKKPVIVEDSGFFVEALNGFPGTYSKFVQETIGNEGILKLLEGKDNRNAYFKTVIGYCDENGVRLFKGIVKGRVSEEIRSKGYGFAYDSIFIPEEEERTFAEMTTEEKSQISHRKKAFEEFKKFLLDRI | soluble
MMIEGLEKMLAKGVDNALLRFGLGKGYLDAGDAERAAEHLQRCVEQDPKYSAGWKLLGKARQAAGDLAGARQAWEQGLATAATHGDKQAEKEMTVFLRKLDRART | not soluble
MDRRRFLVGLLGLGLARGQGLRVEEVVGGLEVPWALAFLPDGGMLIAERPGRIRLFREGRLSTYAELSVYHRGESGLLGLALHPRFPQEPYVYAYRTVAEGGLRNQVVRLRHLGERGVLDRVVLDGIPARPHGLHSGGRIAFGPDGMLYVTTGEVYERELAQDLASLGGKILRLTPEGEPAPGNPFLGRRGARPEVYSLGHRNPQGLAWHPKTGELFSSEHGPSGEQGYGHDEVNLIVPGGNYGWPRVVGRGNDPRYRDPLYFWPQGFPPGNLAFFRGDLYVAGLRGQALLRLVLEGERGRWRVLRVETALSGFGRLREVQVGPDGALYVTTSNRDGRGQVRPGDDRVLRLL | soluble
MSLKNIKSNLGDYATLVFDCDGVLLDSNKVKTQAFYEAALPYGEMAAQALADHHVANGGISRYKKFSYFLEHIVAQHAEGPSLEHLLDRYAENVSSGLLSCDIASGIRELRAKTPNTRWLIVSGGDQTELREVFAQRKLAEIFDGGIFGSPDAKEEIIARELRSSNIAPPALFIGDSKYDFKAASESNLDFLFLSDWSEVKNWQQWCNENNIYALGNISSLLETCTHPEEGHHHHHH | soluble
